Data reported in the supplement of paper PMC9170038.

System: MS2 coat protein
Assay: apparent KD of MS2 coat protein; designed switch direction (-1 OFF switch, 1 ON switch): 1; higher = weaker reporter binding
In short: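 Three titration conditions were used: no input, 200 uM small-molecule ligand, and an oligonucleotide input. In each, SNAP-549-labelled MS2 coat protein was raised from 0.7 or 1.5 nM, doubling, to 3 µM over designed RNA switches transcribed on Illumina chips by stalled E. coli RNA polymerase. Curve fits of normalised cluster fluorescence gave values whose per-design median over clusters is the apparent KD.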

[1] = Eterna round: R95, input ligand: FMN 200 uM
[2] = Eterna round: R95, input ligand: microRNA oligo, concentration not stated
[3] = Eterna round: R95, input ligand: none
[4] = input ligand: microRNA oligo, concentration not stated

Sequence	apparent KD of MS2 coat protein [1]	apparent KD of MS2 coat protein [2]	apparent KD of MS2 coat protein [3]	apparent KD of MS2 coat protein [4]	apparent KD of MS2 coat protein (input ligand: FMN 200 uM)	apparent KD of MS2 coat protein (input ligand: none)
AUUAAACAUGAGGAUCACCCAUGUCAACAAAGUCGAGGAUAUGGGCAAAUUAUAUAAUAACCAGAAGGCGAAUAAU [salish99_ss1_r3_083] (puzzle: Same State 1)	15.2 nM	18.9 nM	14.2 nM			
AUUAAACAUGAGGAUCACCCAUGUCUACAAAGUCGAGGAUAUGGGCAAAUAAAAUAAGAACCAGAAGGCGAAUAAU [salish99_ss1_r3_072] (puzzle: Same State 1)	60.3 nM	613 nM	533 nM			
AUUAAUUAAUUAAUACAUGAGGAUCACCCAUGUAAUAAGAUCAAGGAUAUCAGCUCGUUUAGAGCUGAGAAGGUGAUCACAUGU [SSNG3/17-B3] (Eterna round: R96, puzzle: Same State NG 3)				246 nM		
AUUACUAAUGCAGGAUAUGAUUAACAUGAGGAUCACCCAUGUGGUGUUGUGAGUAAGGAGAGUGAUCAGAAGGGCAUUUUUUUU [JMF's solution 29] (Eterna round: R96, puzzle: Same State NG 2)				362 nM	518 nM	325 nM
AUUAGUUGCGGGCAGGAUAUGUAUUAAAAUACAUGAGGAUCACCCAUGUGCGGGUAUAACACCCGACAGAAGGGCCAAUCGCGAC [Mat - Same State 2 - Mod of UCT - D93] (puzzle: Same State 2)	25.4 nM	250 nM	409 nM			
AUUAUUAAUGCAGGAUAUGAUUAACAUGAGGAUCACCCAUGUGGUGUUGUGAGUAAGGAGAGUGAUCAGAAGGGCAUUUUUAUU [JMF's solution 13] (Eterna round: R96, puzzle: Same State NG 2)				353 nM	1020 nM	808 nM
AUUAUUUAUGCAGGAUAUGAUUAACAUGAGGAUCACCCAUGUGGUGUUGUGAGUAAGGAGAGUGAUCAGAAGGGCAUUUUAUUU [JMF's solution 50] (Eterna round: R96, puzzle: Same State NG 2)				522 nM	1560 nM	571 nM
AUUAUUUAUGCAGGAUAUGAUUAACAUGAGGAUCACCCAUGUGGUGUUGUGAGUAAGGAGAGUGAUCAGAAGGGCAUUUUGUUU [JMF's solution 51] (Eterna round: R96, puzzle: Same State NG 2)				321 nM	794 nM	451 nM
AUUAUUUAUGCAGGAUAUGAUUAACAUGAGGAUCACCCAUGUGGUGUUGUGAGUAAGGAGAGUGAUCAGAAGGGCAUUUUUAUU [JMF's solution 52] (Eterna round: R96, puzzle: Same State NG 2)				493 nM	627 nM	568 nM
AUUAUUUAUGCAGGAUAUGAUUAACAUGAGGAUCACCCAUGUGGUGUUGUGAGUAAGGAGAGUGAUCAGAAGGGCAUUUUUGUU [JMF's solution 53] (Eterna round: R96, puzzle: Same State NG 2)				438 nM	992 nM	657 nM
AUUAUUUCAUGAGGAUAUGGCACCUUAUUGGUGCCAGAAGGCAUGUCAUUAGACAUGAGGAUCACCCAUGUAUUAUAUUAUAUA [Fiskers NG1ss - 13] (Eterna round: R96, puzzle: Same State NG 1)				392 nM	41.5 nM	534 nM
AUUAUUUGUGCAGGAUAUGAUUAACAUGAGGAUCACCCAUGUGGUGUUGUGAGUAAGGAGAGUGAUCAGAAGGGCAUUUUUUUU [JMF's solution 61] (Eterna round: R96, puzzle: Same State NG 2)				476 nM	590 nM	478 nM
AUUCGUUUGAUAGGAUAUCACUUUACAUGAGGAUCACCCAUGUUCACCACGCUGGUCCCUUAUACUGAGAAGGAUCUUGAUGAC [JR_SSNG2_Sub008] (Eterna round: R96, puzzle: Same State NG 2)				64.5 nM	107 nM	95.7 nM
AUUGCUUACGCAGGAUAUGAUGCGAAAAUUGCGUCAGAAGGGUGAAGUGACUCAUUGCAACAGGACAUGAGGAUCACCCAUGUC [SameState NG1 #90] (Eterna round: R96, puzzle: Same State NG 1)				305 nM	184 nM	708 nM
AUUUUCAAUGCAGGAUAUGAUUAACAUGAGGAUCACCCAUGUGGUGUUGUGAGUAAGGAGAGUGAUCAGAAGGGCAUUUUUUUU [JMF's solution 97] (Eterna round: R96, puzzle: Same State NG 2)				371 nM	428 nM	486 nM
AUUUUUAAUGCAGGAUAUGAUUAACAUGAGGAUCACCCAUGUGGUGUUGUGAGUAAGGAGAGUGAUCAGAAGGGCAUUUUUUAU [JMF's solution 86] (Eterna round: R96, puzzle: Same State NG 2)				702 nM	453 nM	441 nM
AUUUUUAAUGCAGGAUAUGAUUAACAUGAGGAUCACCCAUGUGGUGUUGUGAGUAAGGAGAGUGAUCAGAAGGGCAUUUUUUCA [SS-NG2-LRO01] (Eterna round: R96, puzzle: Same State NG 2)				495 nM	838 nM	533 nM
CAAGCUUGGGUCUUCCCGCUCGUCUACAAACAUGAGGAUCACCCAUGUAUACUCUUCGCAUCAAUUCUAUCUCUUGG [Onraenbi] (Eterna round: R96, puzzle: Sensor for hsa-mir-208a)				23.1 nM	176 nM	163 nM
CAAGCUUGGGUCUUCCCGCUCGUCUACAAACAUGAGGAUCACCCAUGUAUACUCUUCGCAUCAAUUCUAUCUCUUGG [Onraenbi] (puzzle: Sensor for hsa-mir-208a)	210 nM	23.3 nM	272 nM			
CAGAGCCCAUGGGCCUGACAUGAGGAUCACCCAUGUGGCUUUGAGGAUAUAAGCGGAAACACCACUUAGAAGGCGAAGCCUAAC [Bequedbi] (Eterna round: R96, puzzle: Same State NG 3)				37.1 nM	489 nM	11.3 nM
